In publication PMC3725505 (Scientific Reports, 2013):
Ends that are not written are not given here.

Target: Kelch domain of human Keap1 (residues 321-609) (human, UniProt Q14145 321-609)
Test: ITC

Sequence of Kelch domain of human Keap1 (residues 321-609) (Q14145 321-609): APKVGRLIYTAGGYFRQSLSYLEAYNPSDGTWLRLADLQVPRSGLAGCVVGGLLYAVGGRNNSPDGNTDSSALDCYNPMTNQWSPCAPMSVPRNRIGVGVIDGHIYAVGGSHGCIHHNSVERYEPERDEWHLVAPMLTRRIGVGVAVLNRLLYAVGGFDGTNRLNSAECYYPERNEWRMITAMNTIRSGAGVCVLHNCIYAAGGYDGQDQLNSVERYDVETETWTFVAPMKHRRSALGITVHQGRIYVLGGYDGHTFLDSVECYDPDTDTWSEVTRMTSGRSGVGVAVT

SLEEPHSPETGEKVVAGEVN (also: phosphoserine (S286), position in chain not placed) [WTX pS286 peptide (20-mer, S286 phosphorylated)] was tested, and the dH was -10.8 ± 0.14 kcal/mol.
